Where a chain is given by its changes, count along the chain named.
B1: 01B05R2 VHH Mono-Fc (Fc fusion)
chain: EVQLVESGGGLVQAGGSLRLSCAASGRSLSFDTYAMGWFRQAPGKEREFVASIDWNGGSTYYADSVKGRFTISRDNARNTVNLRMNSLKPDDTAVYYCAAARYYTSGTYFPANYWGQGTQVTVSSSPAPELLGGPSVFLFPPKPKDTLMISRTPEVTCVVVDVSHEDPEVKFNWYVDGVEVHNAKTKPREEQYNSTYRVVSVLTVLHQDWLNGKEYKCKVSNKALPAPIEKTISKAKGQPREPQVYTKPPSREEMTKNQVSLSCLVKGFYPSDIAVEWESNGQPENNYKTTVPVLDSDGSFRLASYLTVDKSRWQQGNVFSCSVMHEALHNHYTQKSLSLSPGK
B2: 01C09R3LS VHH Mono-Fc (Fc fusion)
chain: EVQLVESGGGLVQAGGSLRLSCAASGRTINTYVMGWFRQAPGKEREFVARIDWSGSSTDYADSVKGRFTISRDNAKNTVYLQMNSLKPEDTAVYYCAGSAYYSGYVTHRDFGSWGQGTQVTVSSSPAPELLGGPSVFLFPPKPKDTLMISRTPEVTCVVVDVSHEDPEVKFNWYVDGVEVHNAKTKPREEQYNSTYRVVSVLTVLHQDWLNGKEYKCKVSNKALPAPIEKTISKAKGQPREPQVYTKPPSREEMTKNQVSLSCLVKGFYPSDIAVEWESNGQPENNYKTTVPVLDSDGSFRLASYLTVDKSRWQQGNVFSCSVMHEALHNHYTQKSLSLSPGK
B3: 01E09R3LS VHH Mono-Fc (Fc fusion)
chain: B2 chain with I70T, S85G, Q119L
B4: 01G10R3LS VHH Mono-Fc (Fc fusion)
chain: B2 chain with M34T
B5: 01C02R2 VHH Mono-Fc (Fc fusion)
chain: EVQLVESGGGLVQAGGSLRLSCAASGRSYAMGWFRQAPGKEREFAAAISWSGSRTYYADAVKGRFTISRDNAKNTVYLQMNSLKPEDTAVYYCAADPDGTVVASSGWTNSYEYGYWGQGTLVTVSSSPAPELLGGPSVFLFPPKPKDTLMISRTPEVTCVVVDVSHEDPEVKFNWYVDGVEVHNAKTKPREEQYNSTYRVVSVLTVLHQDWLNGKEYKCKVSNKALPAPIEKTISKAKGQPREPQVYTKPPSREEMTKNQVSLSCLVKGFYPSDIAVEWESNGQPENNYKTTVPVLDSDGSFRLASYLTVDKSRWQQGNVFSCSVMHEALHNHYTQKSLSLSPGK
B6: 01D09R3 VHH Mono-Fc (Fc fusion)
chain: QVQLVESGGGLVQAGGSLRLSCAASGRTFSVYAMGWFRQAPGKERQFVAAITWSGGSTSYADSVKGRFTISRDNAKNTVYLQMNILKPEDTAVYYCAAATNPYFSDYYPDLKYEFDYWGQGTLVTVSSSPAPELLGGPSVFLFPPKPKDTLMISRTPEVTCVVVDVSHEDPEVKFNWYVDGVEVHNAKTKPREEQYNSTYRVVSVLTVLHQDWLNGKEYKCKVSNKALPAPIEKTISKAKGQPREPQVYTKPPSREEMTKNQVSLSCLVKGFYPSDIAVEWESNGQPENNYKTTVPVLDSDGSFRLASYLTVDKSRWQQGNVFSCSVMHEALHNHYTQKSLSLSPGK
B7: 03H01R3 VHH Mono-Fc (Fc fusion)
chain: EVQLVESGGGLVQAGGSLRLSCAASGRTSSIYNMGWFRQAPGQEREFVAAIHWGGGRTYYADSVKGRFTISRDNAKNTVYLQMNSLEPGDTANYYCAARRAPELLDDYKQKPEEIGTYHYWGQGTQVTVSSSPAPELLGGPSVFLFPPKPKDTLMISRTPEVTCVVVDVSHEDPEVKFNWYVDGVEVHNAKTKPREEQYNSTYRVVSVLTVLHQDWLNGKEYKCKVSNKALPAPIEKTISKAKGQPREPQVYTKPPSREEMTKNQVSLSCLVKGFYPSDIAVEWESNGQPENNYKTTVPVLDSDGSFRLASYLTVDKSRWQQGNVFSCSVMHEALHNHYTQKSLSLSPGK
B8: 01B04R2 VHH Mono-Fc (Fc fusion)
chain: EVQLVESGGGLVQAGGSLRLSCAASGRTFTSYTMGWFRQAPGKEREFVAAIKWNGGSTYYADSVKGRFTISRDNAKNTVYLQMNSLKPEDTAVYYCAADGDPYFSPTDGIVWHAPHQSEYDYWGQGTLVTVSSSPAPELLGGPSVFLFPPKPKDTLMISRTPEVTCVVVDVSHEDPEVKFNWYVDGVEVHNAKTKPREEQYNSTYRVVSVLTVLHQDWLNGKEYKCKVSNKALPAPIEKTISKAKGQPREPQVYTKPPSREEMTKNQVSLSCLVKGFYPSDIAVEWESNGQPENNYKTTVPVLDSDGSFRLASYLTVDKSRWQQGNVFSCSVMHEALHNHYTQKSLSLSPGK
B9: 01F03R3LS VHH Mono-Fc (Fc fusion)
chain: B2 chain with T31G, K43E, N77I, Q119L
B10: 01D04R3LS VHH Mono-Fc (Fc fusion)
chain: EVQLVESGGGLVQAGGSLRLSCAASGRTFRSYAMGWFRQAPGKEREFVADISWRGGRLYYADSVKGRFTISRDNAKNTVYLQMNSLKPEDTAVYYCAATGDQPAFTTAQGMGAMLEYDYWGQGTLVTVSSSPAPELLGGPSVFLFPPKPKDTLMISRTPEVTCVVVDVSHEDPEVKFNWYVDGVEVHNAKTKPREEQYNSTYRVVSVLTVLHQDWLNGKEYKCKVSNKALPAPIEKTISKAKGQPREPQVYTKPPSREEMTKNQVSLSCLVKGFYPSDIAVEWESNGQPENNYKTTVPVLDSDGSFRLASYLTVDKSRWQQGNVFSCSVMHEALHNHYTQKSLSLSPGK
B11: 02G04R3 VHH Mono-Fc (Fc fusion)
chain: QVQLVESGGGLVQAGGSLRLSCAANGRAANAYAVGWFRQAPGKEREFVAHIRWNGGRTAYADSVKGRFTISRDDAKNTVYLQMDSLKPEDTAVYYCAEDTNPDAFGDLRLPSEYEYWGQGTQVTVSSSPAPELLGGPSVFLFPPKPKDTLMISRTPEVTCVVVDVSHEDPEVKFNWYVDGVEVHNAKTKPREEQYNSTYRVVSVLTVLHQDWLNGKEYKCKVSNKALPAPIEKTISKAKGQPREPQVYTKPPSREEMTKNQVSLSCLVKGFYPSDIAVEWESNGQPENNYKTTVPVLDSDGSFRLASYLTVDKSRWQQGNVFSCSVMHEALHNHYTQKSLSLSPGK
B12: 03A08R3 VHH Mono-Fc (Fc fusion)
chain: QVQLVESGGGLVQAGGSLRLSCAASGRTSSIYGMGWFRQAPGKEREFVAAISWSAGRTYHADSVKGRFTISRDNAKNMVYLQMDKMKPGDTAVYYCAARRAPELLSDYTQKPEEIGTYHYWGQGTLVTVSSSPAPELLGGPSVFLFPPKPKDTLMISRTPEVTCVVVDVSHEDPEVKFNWYVDGVEVHNAKTKPREEQYNSTYRVVSVLTVLHQDWLNGKEYKCKVSNKALPAPIEKTISKAKGQPREPQVYTKPPSREEMTKNQVSLSCLVKGFYPSDIAVEWESNGQPENNYKTTVPVLDSDGSFRLASYLTVDKSRWQQGNVFSCSVMHEALHNHYTQKSLSLSPGK
B13: 02C10R3 VHH Mono-Fc (Fc fusion)
chain: EVQLVESGGGLVQPGGSLRLSCAASGFTFSSFTMTWFRQAPGKGLGWVSRISSDGTGTNYADSVKGRFTISRDNAKNTLYLRMNSLKPEDTAVYYCAIADDSSTRGQGTLVTVSSSPAPELLGGPSVFLFPPKPKDTLMISRTPEVTCVVVDVSHEDPEVKFNWYVDGVEVHNAKTKPREEQYNSTYRVVSVLTVLHQDWLNGKEYKCKVSNKALPAPIEKTISKAKGQPREPQVYTKPPSREEMTKNQVSLSCLVKGFYPSDIAVEWESNGQPENNYKTTVPVLDSDGSFRLASYLTVDKSRWQQGNVFSCSVMHEALHNHYTQKSLSLSPGK

Molecular target: T1, cynomolgus monkey pIgR extracellular domain (cynomolgus monkey, UniProt A0A2K5WMU9 19-638)
T1 construct: extracellular domain
T1 sequence (A0A2K5WMU9 entry or part of it): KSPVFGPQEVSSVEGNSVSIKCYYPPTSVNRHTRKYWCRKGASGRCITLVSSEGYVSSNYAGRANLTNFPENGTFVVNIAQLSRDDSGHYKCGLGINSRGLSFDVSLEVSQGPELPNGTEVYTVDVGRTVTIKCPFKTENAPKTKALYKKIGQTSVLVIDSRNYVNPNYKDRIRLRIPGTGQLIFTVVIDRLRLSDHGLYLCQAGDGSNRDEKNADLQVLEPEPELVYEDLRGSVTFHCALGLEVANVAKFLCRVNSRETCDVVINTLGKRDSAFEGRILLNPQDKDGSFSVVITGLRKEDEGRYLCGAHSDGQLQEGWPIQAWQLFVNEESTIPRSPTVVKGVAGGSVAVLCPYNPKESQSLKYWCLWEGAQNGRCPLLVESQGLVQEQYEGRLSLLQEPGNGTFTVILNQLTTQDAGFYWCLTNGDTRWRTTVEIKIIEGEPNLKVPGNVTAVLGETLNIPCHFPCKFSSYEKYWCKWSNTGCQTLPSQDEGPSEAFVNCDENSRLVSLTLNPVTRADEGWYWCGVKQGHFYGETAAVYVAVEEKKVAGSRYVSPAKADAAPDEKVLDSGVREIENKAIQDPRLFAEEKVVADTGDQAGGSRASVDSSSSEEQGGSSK
Assay: SPR, VHH captured by anti-Fc, ECD analyte
Procedure: (§1) In an assay, two flow cells of the SPR were used, in which the flow cell 1 ran the buffer reference, and the flow cell 2 ran the analyte. […] The HBSP (GE) buffer was followed at a flow rate of 30 μL/min. Then, the VHHs were captured on the anti-human Fc protein surface at 0.5 ug/ml (˜200-300 RU) on the flow cell 2. The running buffer was changed to HBSP with 100 ug/ml BSA after the capture. Next, the pIgR extracellular domains were used as analyte and loaded in a series of concentrations, starting at 30 nM with further 3-fold dilution series.
(§2) The extracellular domains were prepared as follows: cynomolgus monkey and rat extracellular domains were produced and characterized in house; mouse and human pIgR extracellular domains were purchased from R&D Systems (Cat #2800-PG-050 & 2717-PG-050 respectively). The pIgR extracellular domains were injected from low to high concentration using a single-cycle kinetics method. The off-rate was monitored at 30 minutes after the last or highest concentration injection. The reference run was completed under the same conditions except that the pIgR injection was replaced by buffer injection.
(§3) The raw data were processed by subtracting two sets of reference data from the response data: (1) reference flow cell 1 subtracted from sample flow cell 2; and (2) buffer blank run subtracted from experimental run. The processed data at all concentrations for each VHH were globally fit to a 1:1 simple Langmuir binding model to extract estimates of the kinetic constants (kₒₙ, koff) and affinity constants (KD).

Going from B1 to B2, the Kd falls from 177 nM to 93.7 nM (1.9-fold). The second binds more tightly here.

Going from B3 to B4, the Kd rises from 135 nM to 287 nM (2.1-fold).

Molecular target: T2, human pIgR extracellular domain (ECD) (human, UniProt P01833 19-638)
T2 construct: Bought from R&D Systems (Cat 2717-PG-050); also called hpIgR ECD
T2 sequence (P01833 other isoform, or with tags, fused parts or gaps): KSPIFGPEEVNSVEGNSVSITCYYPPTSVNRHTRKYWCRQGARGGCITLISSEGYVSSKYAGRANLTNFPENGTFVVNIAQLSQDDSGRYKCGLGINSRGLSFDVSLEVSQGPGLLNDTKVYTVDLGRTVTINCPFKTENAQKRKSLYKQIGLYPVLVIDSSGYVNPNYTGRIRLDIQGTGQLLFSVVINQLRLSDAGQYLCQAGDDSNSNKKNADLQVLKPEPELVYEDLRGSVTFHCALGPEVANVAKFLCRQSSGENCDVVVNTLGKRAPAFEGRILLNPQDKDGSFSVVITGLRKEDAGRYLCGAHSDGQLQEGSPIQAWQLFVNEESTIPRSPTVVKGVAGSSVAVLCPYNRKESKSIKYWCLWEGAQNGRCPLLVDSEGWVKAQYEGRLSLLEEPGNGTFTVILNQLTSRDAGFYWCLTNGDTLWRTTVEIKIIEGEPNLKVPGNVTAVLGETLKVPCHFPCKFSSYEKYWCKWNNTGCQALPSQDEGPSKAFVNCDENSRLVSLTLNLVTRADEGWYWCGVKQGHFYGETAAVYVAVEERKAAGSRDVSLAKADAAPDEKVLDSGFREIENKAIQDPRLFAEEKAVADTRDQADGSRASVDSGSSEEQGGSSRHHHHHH
Assay: SPR, VHH captured by anti-Fc, ECD analyte
Procedure: as §1, §2, §3

First: B5
Second: B1
The Kd of the first is 13-fold lower: 0.275 nM for the first, 3.55 nM for the second.

Going from B6 to B7, the Kd falls from 2.76 nM to 0.15 nM (18-fold).

First: B8
Second: B2
The Kd of the first is 2.4-fold higher: 16.8 nM for the first, 6.92 nM for the second.

B3 and B9 are within 1.5-fold of each other in Kd: 8.39 nM for the first, 10.9 nM for the second.

Compared with B4, B10 is 16-fold lower in Kd: 18.5 nM for the first, 1.16 nM for the second.

First: B11
Second: B12
The Kd of the first is 1.5-fold lower: 1.29 nM for the first, 1.97 nM for the second.

B13 was tested, and the Kd was 2.09 nM.

Source: patent US20220112276A1 (Janssen / Centocor, published 2022)
